Data on one molecule can be found in article PMC7053344, “Crystal Structures of Human C4.4A Reveal the Unique Association of Ly6/uPAR/α-neurotoxin Domain” (International Journal of Biological Sciences, 2020).

For experiment [1], the target named is T1, C4.4A-DIDII^1-199 fused to a C-terminal uPAR DIII purification tag (Homo sapiens, UniProt O95274).
T1 construct: C4.4A (LYPD3), human, both LU-domains DI and DII, residues 1-199; also called C4.4A-DIDII (blot construct); not shown: uPAR DIII, C-terminal, kept
The experiment can be described thus: far-Western, overlay or dot blot; immunoblot: purified C4.4A domain constructs, unreduced (lanes 1-6), separated by SDS-PAGE and immobilized on a PVDF membrane; 1 µg/mL mAb 11H10 as primary antibody, peroxidase-conjugated anti-mouse immunoglobulins, ECL. The following applies: both partners purified.

The target in experiment [2] is T2, C4.4A^1-278 fused to a C-terminal uPAR DIII purification tag (Homo sapiens, UniProt O95274).
T2 construct: C4.4A (LYPD3), human, DI, DII and STP-rich region, residues 1-278; also called C4.4A-ent-uPAR-DIII; not shown: uPAR DIII, C-terminal, kept
The description is as above. The following applies: both partners purified.

T1 sequence (O95274 whole entry, looked up, the tested form may be a part): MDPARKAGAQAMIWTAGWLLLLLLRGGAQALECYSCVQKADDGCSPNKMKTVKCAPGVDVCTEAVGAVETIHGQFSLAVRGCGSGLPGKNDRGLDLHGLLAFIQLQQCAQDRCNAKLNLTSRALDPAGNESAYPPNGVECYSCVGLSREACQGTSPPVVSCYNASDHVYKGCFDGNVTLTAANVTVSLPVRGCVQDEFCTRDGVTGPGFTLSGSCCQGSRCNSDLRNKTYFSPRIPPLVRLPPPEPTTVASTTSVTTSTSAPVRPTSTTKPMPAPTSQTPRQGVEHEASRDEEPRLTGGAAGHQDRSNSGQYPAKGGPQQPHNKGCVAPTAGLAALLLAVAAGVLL
T2 sequence (O95274 whole entry, looked up, the tested form may be a part): as above

B1: mouse monoclonal anti-human C4.4A antibody 11H10 (antibody, V domains shown)
VH: QVTLKESGPGILQPSQTLSLTCSFSGFSLNSFGTGVGWIRQPSGKGLEWLAHIWWNDYKYYNAALESRLTISKDTSNNQVFLKIASVDTADTATYYCARLRLRYFDYWGQGTTLTVSS
VL: DILMTQSPAILSVSPGEGVSFSCWANQNIGTSIHWYQQRTNGSPRLLIKYASESISGIPSRFSGSGSGTDFTLSINSVESEDIADYYCQQSNSWPIFTFGSGTKLEIK
notes: 11H10 light chain (kappa), printed as the Fab light chain; 11H10 heavy chain VH, CH1 and start of the hinge, printed as the Fab heavy chain; mouse IgG1 heavy chain constant region, the rest of the hinge, CH2 and CH3 that follow the printed Fd (ends VPRDC); IgG1 kappa; also called mAb 11H10; source: mouse hybridoma (FVB mice immunized with recombinant human C4.4A), purified
In the case of B1, the binding result in experiment [1] and in experiment [2] was “binds” throughout.
